Assay results from PMC3629940, “Exploring the structure and function of Thermotoga maritima CorA reveals the mechanism of gating and ion selectivity in Co^2+/Mg^2+ transport” (Biochemical Journal, 2013).
Substitutions are numbered along the chain they refer to. Names may count otherwise.

B1: Thermotoga maritima CorA N288L mutant (natural protein)
chain: MEEKRLSAKKGLPPGTLVYTGKYREDFEIEVMNYSIEEFREFKTTDVESVLPFRDSSTPTWINITGIHRTDVVQRVGEFFGIHPLVLEDILNVHQRPKVEFFENYVFIVLKMFTYDKNLHELESEQVSLILTKNCVLMFQEKIGDVFDPVRERIRYNRGIIRKKRADYLLYSLIDALVDDYFVLLEKIDDEIDVLEEEVLERPEKETVQRTHQLKRNLVELRKTIWPLREVLSSLYRDVPPLIEKETVPYFRDVYDHTIQIADTVETFRDIVSGLLDVYLSSVSNKTLEVMKVLTIIATIFMPLTFIAGIYGMNFEYMPELRWKWGYPVVLAVMGVIAVIMVVYFKKKKWL
notes: CorA of Thermotoga maritima with N288L; source: E. coli, overexpressed, purified (1% DDM solubilisation, Ni-NTA, TEV cleavage, Superdex 200)
B2: Thermotoga maritima CorA T295L mutant (natural protein)
chain: B1 chain with L288N, T295L
notes: CorA of Thermotoga maritima with T295L; source: E. coli, overexpressed, purified (1% DDM solubilisation, Ni-NTA, TEV cleavage, Superdex 200)
B3: Thermotoga maritima CorA T299L mutant (natural protein)
chain: B1 chain with L288N, T299L
notes: CorA of Thermotoga maritima with T299L; source: E. coli, overexpressed, purified (1% DDM solubilisation, Ni-NTA, TEV cleavage, Superdex 200)

Molecular target: the molecule itself
Test: SEC; size-exclusion chromatography of the mutants to verify channel intactness (Supplementary Figure S2); conditions of this run not told

Row | Protein | binding result
1 | B1 | binds
2 | B2 | binds
3 | B3 | binds
